Source: publication doi:10.1101/2022.10.14.512215 (bioRxiv, 2022)
“And” between values parts separate entries of the source, which are not always exact repeats. Identical values can stand only once.

B1: XIAP BIR2^154-240 (domain or fragment)
chain: YPRNPAMYSEEARLKSFQNWPDYAHLTPRELASAGLYYTGIGDQVQCFCCGGKLKNWEPCDRAWSEHRRHFPNCFFVLGRNLNIRSE
B2: XIAP BIR2AG^154-240 (domain or fragment)
chain: YPRNPAMYSEEARLKSFQNWPDYAHLTPRELASAGLYYTGIGDQVQCFACGGKLKNWEPGDRAWSEHRRHFPNCFFVLGRNLNIRSE
B3: XIAP BIR2^124-263 (domain or fragment)
chain: GPRDHFALDRPSETHADYLLRTGQVVDISDTIYPRNPAMYSEEARLKSFQNWPDYAHLTPRELASAGLYYTGIGDQVQCFCCGGKLKNWEPCDRAWSEHRRHFPNCFFVLGRNLNIRSESDAVSSDRNFPNSTNLPRNPSMA
B4: XIAP BIR2^93-263 (domain or fragment)
chain: GPINGFYLENSATQSTNSGIQNGQYKVENYLGSRDHFALDRPSETHADYLLRTGQVVDISDTIYPRNPAMYSEEARLKSFQNWPDYAHLTPRELASAGLYYTGIGDQVQCFCCGGKLKNWEPCDRAWSEHRRHFPNCFFVLGRNLNIRSESDAVSSDRNFPNSTNLPRNPSMA
B5: RIP2K^1-317 (kinase domain of human RIP2, residues 1-317) (domain or fragment)
chain: MNGEAICSALPTIPYHKLADLRYLSRGASGTVSSARHADWRVQVAVKHLHIHTPLLDSERKDVLREAEILHKARFSYILPILGICNEPEFLGIVTEYMPNGSLNELLHRKTEYPDVAWPLRFRILHEIALGVNYLHNMTPPLLHHDLKTQNILLDNEFHVKIADFGLSKWRMMSLSQSRSSKSAPEGGTIIYMPPENYEPGQKSRASIKHDIYSYAVITWEVLSRKQPFEDVTNPLQIMYSVSQGHRPVINEESLPYDIPHRARMISLIESGWAQNPDERPSFLKCLIELEPVLRTFEEITFLEAVIQLKKTKLQSV
B6: XIAP BIR2^93-240 (domain or fragment)
chain: GPINGFYLENSATQSTNSGIQNGQYKVENYLGSRDHFALDRPSETHADYLLRTGQVVDISDTIYPRNPAMYSEEARLKSFQNWPDYAHLTPRELASAGLYYTGIGDQVQCFCCGGKLKNWEPCDRAWSEHRRHFPNCFFVLGRNLNIRSE
B7: XIAP BIR2^124-240 (domain or fragment)
chain: GPRDHFALDRPSETHADYLLRTGQVVDISDTIYPRNPAMYSEEARLKSFQNWPDYAHLTPRELASAGLYYTGIGDQVQCFCCGGKLKNWEPCDRAWSEHRRHFPNCFFVLGRNLNIRSE
B8: XIAP BIR2AG^124-240 (domain or fragment)
chain: GPRDHFALDRPSETHADYLLRTGQVVDISDTIYPRNPAMYSEEARLKSFQNWPDYAHLTPRELASAGLYYTGIGDQVQCFACGGKLKNWEPGDRAWSEHRRHFPNCFFVLGRNLNIRSE

Tests used:
[1] = target: B5; experiment: native MS
[2] = target: RIP2K^1-300 (kinase domain of human RIP2, residues 1-300) (human, UniProt O43353 1-300); experiment: MST
[3] = target: B5; experiment: cryo-EM structure
native MS = target: the molecule itself; experiment: native MS
[4] = target: B5; experiment: NMR translational diffusion

Binder	stoichiometry N [1]	binding result [2]	further results
B1	1 RIP2K per XIAP BIR2 (2:2)	–	Kd [2]: 85.6 ± 18.7 nM; stoichiometry N [3]: 2 RIP2K per XIAP BIR2 (2:1)
B2	2 RIP2K per XIAP BIR2 (2:1) and 1 RIP2K per XIAP BIR2 (2:2)	–	–
B3	–	binds	–
B4	–	binds	–
B5	–	–	stoichiometry N (native MS): 2
B6	–	binds	–
B7	1 RIP2K per XIAP BIR2 (2:2) and 2 RIP2K per XIAP BIR2 (2:1)	–	–
B8	1 RIP2K per XIAP BIR2 (2:2)	–	stoichiometry N [4]: 2 RIP2 per BIR2 (1:2 BIR2:RIP2)
